The text below walks through data of paper PMC2563037.

The assay addresses H-2K^b (MHC class I heavy chain with its light chain, the 'heterodimer' of the crystal structures) (mouse | not stated). Briefly: circular dichroism thermal melt; far-UV CD of the H-2K^b/peptide-Aba complexes, thermostatted cuvette, 30 to 90°C.

Non-standard residues stand in square brackets, D forms with d. No end group written: not given here. Abu = CC[C@H](N)C(=O)O

Take R[Abu]YIFANI: the Tm of the complex is 64 °C. With R[Abu]QIFANI, the Tm of the complex is 54 °C.
